Experiment [1] has as its target HLA-A*02:03. Briefly: IEDB peptide-MHC binding, purified MHC/direct/fluorescence; filed as Kd, often an IC50 or EC50 that approximates it; ≥ and ≤ were set here for values at or beyond the usual limits of such assays.
Experiment [2] concerns the target HLA-A*02:12. The description is as above.
Experiment [3] has as its target HLA-A*02:16. The experiment is described as above.
Experiment [4] addresses HLA-A*02:19. The description is as above.
Experiment [5] addresses HLA-A*03:01. The experiment is described as above.
Experiment [6] concerns the target HLA-A*24:03. Described as above.
For experiment [7], the target named is HLA-A*02:01. As to the kind of experiment: IEDB peptide-MHC binding, purified MHC/competitive/fluorescence; filed as Kd, often an IC50 or EC50 that approximates it; ≥ and ≤ were set here for values at or beyond the usual limits of such assays.
The target of experiment [8] is HLA-A*31:01. The experiment is described as above.
The target of experiment [9] is HLA-B*15:01. The description is as above.
Experiment [10] addresses HLA-B*15:17. The description is as above.
The target in experiment [11] is HLA-B*15:42. The experiment is described as above. As to conditions: source organism: Zaire ebolavirus.
The target of experiment [12] is HLA-B*18:01. The description is as above.
Experiment [13] has as its target HLA-B*27:03. The experiment is described as above.
Experiment [14] addresses HLA-B*39:01. The description is as above.
Experiment [15] has as its target HLA-B*45:06. Described as above. As to conditions: source organism: Zaire ebolavirus.
Experiment [16] has as its target HLA-B*46:01. The experiment is described as above.
Experiment [17] deals with HLA-B*51:01. The experiment is described as above.
In experiment [18] the target is HLA-B*57:01. Described as above.
Experiment [19] has as its target HLA-B*83:01. Described as above. As to conditions: source organism: Zaire ebolavirus.
The target in experiment [20] is HLA-B*08:01. The experiment is described as above.
Experiment [21] addresses HLA-A*03:01. The description is as above. To be noted: source organism: Escherichia coli 536.
In experiment [22] the target is HLA-A*11:01. As to the kind of experiment: IEDB peptide-MHC binding, purified MHC/direct/fluorescence; filed as Kd, often an IC50 or EC50 that approximates it; ≥ and ≤ were set here for values at or beyond the usual limits of such assays.
In experiment [23] the target is HLA-A*02:03. Briefly: IEDB peptide-MHC binding, purified MHC/competitive/fluorescence; filed as Kd, often an IC50 or EC50 that approximates it; ≥ and ≤ were set here for values at or beyond the usual limits of such assays. As to conditions: source organism: Human immunodeficiency virus 1.
Experiment [24] addresses HLA-A*02:06. Described as above. As to conditions: source organism: Human immunodeficiency virus 1.
The target of experiment [25] is HLA-A*02:12. Described as above. As to conditions: source organism: Human immunodeficiency virus 1.
The target of experiment [26] is HLA-A*02:16. The experiment is described as above.
Experiment [27] concerns the target HLA-A*02:19. Described as above. As to conditions: source organism: Human immunodeficiency virus 1.
The target of experiment [28] is HLA-A*69:01. The description is as above.
Experiment [29] has as its target HLA-A*02:11. As to the kind of experiment: IEDB peptide-MHC binding, purified MHC/direct/fluorescence; filed as Kd, often an IC50 or EC50 that approximates it; ≥ and ≤ were set here for values at or beyond the usual limits of such assays. To be noted: source organism: Limestone Canyon virus.
In experiment [30] the target is HLA-A*29:02. The description is as above. As to conditions: source organism: Limestone Canyon virus.
Experiment [31] deals with HLA-A*68:02. Described as above. As to conditions: source organism: Limestone Canyon virus.
In experiment [32] the target is HLA-B*07:02. Described as above. To be noted: source organism: Orthohantavirus puumalaense.
For experiment [33], the target named is HLA-A*26:01. As to the kind of experiment: IEDB peptide-MHC binding, purified MHC/competitive/fluorescence; filed as Kd, often an IC50 or EC50 that approximates it; ≥ and ≤ were set here for values at or beyond the usual limits of such assays. To be noted: source organism: Orthohantavirus puumalaense.
Experiment [34] concerns the target HLA-B*35:01. The experiment is described as above. To be noted: source organism: Orthohantavirus puumalaense.
For experiment [35], the target named is HLA-C*03:03. Briefly: IEDB peptide-MHC binding, purified MHC/direct/fluorescence; filed as Kd, often an IC50 or EC50 that approximates it; ≥ and ≤ were set here for values at or beyond the usual limits of such assays. To be noted: source organism: Mycobacterium tuberculosis C.
The mark [36] stands for this setting: source organism: Zaire ebolavirus.
The mark [37] stands for this setting: source organism: Escherichia coli.
Setting [38] is: source organism: Escherichia coli 536.
The mark [39] stands for this setting: source organism: Human immunodeficiency virus 1.
Setting [40] is: source organism: Limestone Canyon virus.
The mark [41] stands for this setting: source organism: Orthohantavirus puumalaense.
[42] abbreviates: source organism: Vibrio vulnificus.
[43] abbreviates: source organism: Mycobacterium tuberculosis C.
Setting [44] is: source organism: Influenza A virus (A/Belfast/53582/2004(H3N?)).

The term Kd denotes the free concentration of one partner at which half of the binding sites on the other are occupied at equilibrium, for simple one-to-one binding. Lower therefore signals higher affinity.

In the case of FTFDLTALK, the dissociation constant (Kd) in [1] (setting [36]) was at least 20000 nM; in experiment [2] (setting [36]), at least 20000 nM; in [3] (setting [36]) it was at least 20000 nM; in experiment [4] (setting [36]), at least 20000 nM; in [5] (source organism: Ebola virus - Gabon (1994-1997)) it was 229 nM; in experiment [6] (setting [36]), at least 20000 nM. In addition, the dissociation constant (Kd) in [7] (setting [36]) was at least 20000 nM; in [8] (setting [36]), at least 20000 nM; in experiment [9] (setting [36]), at least 20000 nM; in [10] (setting [36]), at least 20000 nM; in experiment [11] it was at least 5000 nM; in [12] (setting [36]), at least 20000 nM. For the same sequence, the Kd in experiment [13] (setting [36]) was at least 20000 nM; in experiment [14] (setting [36]) it was at least 20000 nM; in experiment [15], at least 5000 nM; in [16] (setting [36]), at least 20000 nM; in [17] (setting [36]), at least 20000 nM; in experiment [18] (setting [36]), at least 20000 nM. The Kd in experiment [19] is at least 5000 nM.

With HLAGYSGVL, the Kd worked out at 1900 nM in [20] (setting [37]), 354 nM in experiment [9] (setting [37]) and 2.5 nM in experiment [14] (setting [37]).

As to KIPATVIAR, the Kd came out at 31 nM in experiment [21] and 34.4 nM in experiment [8] (setting [38]).

For the sequence KTALTGAMR, the Kd in experiment [22] (source organism: Yellow fever virus) is 15.1 nM; in [8] (source organism: Yellow fever virus 1899/81), 16 nM.

For the sequence LIAVPHTKL, in experiment [20] (setting [38]), the Kd is at least 20000 nM.

With SLVKHHMYV, the Kd in experiment [7] (setting [39]) is 7.33 nM; in experiment [23] it was 1.88 nM; in [24], at most 0.1 nM; in experiment [25] it was 9.35 nM; in experiment [26] (setting [39]), 0.572 nM; in [27], 17.2 nM. The sequence also displayed an equilibrium dissociation constant (Kd) in experiment [28] (setting [39]) of 146 nM.

For the sequence SPVMGVIGF, the Kd in experiment [1] (setting [40]), in experiment [29], in experiment [2] (setting [40]), in [3] (setting [40]), in experiment [4] (setting [40]) and in [5] (setting [40]) was at least 20000 nM in each case. For the same sequence, the equilibrium dissociation constant (Kd) in experiment [6] (setting [40]) was at least 20000 nM; in experiment [30], at least 20000 nM; in experiment [31], at least 20000 nM; in [32], 60.7 nM; in [7] (setting [41]), at least 20000 nM; in experiment [33] it was at least 20000 nM. Further, the dissociation constant Kd in experiment [28] (setting [41]) is at least 20000 nM; in experiment [9] (setting [41]), at least 20000 nM; in [10] (setting [41]), at least 20000 nM; in experiment [12] (setting [41]), at least 20000 nM; in experiment [13] (setting [41]) it was at least 20000 nM; in [34], 0.5 nM. For the same sequence, the dissociation constant (Kd) in [14] (setting [41]), in [16] (setting [41]), in experiment [17] (setting [41]) and in [18] (setting [41]) was at least 20000 nM each time.

Consider SSGVFHSYK, for which the figures for the dissociation constant Kd in experiment [5] (setting [42]), in experiment [22] (setting [42]) and in [8] (source organism: Vibrio vulnificus YJ016) were 9.7 nM, at most 1 nM and 3.5 nM, respectively.

As for TMDPSVRVL, the Kd amounted to 30 nM in experiment [35], 41.4 nM in experiment [7] (setting [43]) and 217 nM in [26] (setting [43]).

Turning to VVYKTGAIR, the figures for the dissociation constant (Kd) in experiment [5] (source organism: Mycobacterium leprae) and in [8] (setting [43]) were 751 nM and 59.4 nM, respectively.

Regarding WILDRLFFK, the dissociation constant Kd in [5] (setting [44]) was 52.7 nM; in experiment [22] (setting [44]), 2.1 nM; in experiment [8] (source organism: Influenza A virus (A/Memphis/1/1978(H1N1))), 244 nM.

For the origin of these results see the Immune Epitope Database (IEDB).
